Results from article PMC9638919, “DAZL regulates proliferation of human primordial germ cells by direct binding to precursor miRNAs and enhances DICER processing activity”.

T1: GST-DAZL (UniProt Q92904 1-295)
T1 sequence: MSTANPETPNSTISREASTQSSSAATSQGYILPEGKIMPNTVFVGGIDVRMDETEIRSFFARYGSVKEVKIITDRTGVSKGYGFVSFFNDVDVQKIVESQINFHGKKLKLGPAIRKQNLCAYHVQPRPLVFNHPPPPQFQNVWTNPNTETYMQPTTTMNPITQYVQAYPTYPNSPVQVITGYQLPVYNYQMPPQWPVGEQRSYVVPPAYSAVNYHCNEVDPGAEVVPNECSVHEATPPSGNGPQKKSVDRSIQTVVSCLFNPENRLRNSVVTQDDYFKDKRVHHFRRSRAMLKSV

T2: GST-RRM (DAZL RRM domain) (UniProt Q92904 40-115)
T2 sequence: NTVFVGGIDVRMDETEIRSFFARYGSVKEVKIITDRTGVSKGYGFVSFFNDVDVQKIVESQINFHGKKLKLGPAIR

B1: pre-let-7i (structured_RNA)
RNA: CUGGCUGAGGUAGUAGUUUGUGCUGUUGGUCGGGUUGUGACAUUGCCCGCUGUGGAGAUAACUGCGCAAGCUACUGCCUUGCUA
B2: pre-let-7c (structured_RNA)
RNA: GCAUCCGGGUUGAGGUAGUAGGUUGUAUGGUUUAGAGUUACACCCUGGGAGUUAACUGUACAACCUUCUAGCUUUCCUUGGAGC
B3: pre-miR-199a (structured_RNA)
RNA: GCCAACCCAGUGUUCAGACUACCUGUUCAGGAGGCUCUCAAUGUGUACAGUAGUCUGCACAUUGGUUAGGC
B4: pre-miR-185 (structured_RNA)
RNA: AGGGGGCGAGGGAUUGGAGAGAAAGGCAGUUCCUGAUGGUCCCCUCCCCAGGGGCUGGCUUUCCUCUGGUCCUUCCCUCCCA

Legend:
GST-DAZL [1] = target: T1, GST-DAZL; assay: EMSA; 5000 nM DAZL; 10 mM HEPES pH 7.4, 50 mM KCl, 1 mM EDTA, 0.05% Triton X-100, 5% glycerol, 0.01 mg/ml BSA, 1 mM DTT; 10 nM FAM-RNA, 40 min; temperature not stated; conditions: protein: recombinant; tags: N-terminal GST; label: 5'-FAM; hairpin
GST-DAZL [2] = target: T1, GST-DAZL; assay: EMSA; 3000 nM DAZL; 10 mM HEPES pH 7.4, 50 mM KCl, 1 mM EDTA, 0.05% Triton X-100, 5% glycerol, 0.01 mg/ml BSA, 1 mM DTT; 10 nM FAM-RNA, 40 min; temperature not stated; conditions: protein: recombinant; tags: N-terminal GST; label: 5'-FAM; hairpin
GST-DAZL [3] = target: T1, GST-DAZL; assay: EMSA; only slightly affected vs wild type; 10 mM HEPES pH 7.4, 50 mM KCl, 1 mM EDTA, 0.05% Triton X-100, 5% glycerol, 0.01 mg/ml BSA, 1 mM DTT; 10 nM FAM-RNA, 40 min; temperature not stated; conditions: protein: recombinant; tags: N-terminal GST; label: 5'-FAM
GST-DAZL [4] = target: T1, GST-DAZL; assay: EMSA; 10 mM HEPES pH 7.4, 50 mM KCl, 1 mM EDTA, 0.05% Triton X-100, 5% glycerol, 0.01 mg/ml BSA, 1 mM DTT; 10 nM FAM-RNA, 40 min; temperature not stated; conditions: protein: recombinant; tags: N-terminal GST; label: 5'-FAM
[5] = target: T2, GST-RRM (DAZL RRM domain); assay: as above; conditions: protein: recombinant; tags: N-terminal GST; label: 5'-FAM; hairpin

Binder	binding signal (GST-DAZL [1]) [% shifted]	binding signal (GST-DAZL [2]) [% shifted]	further results
B1	50.9	37	–
UAGAAUUACACCCUGGGAAUUAA (ssRNA) [pre-let-7c loop, first G to A in both GUU]	–	–	binding result (GST-DAZL [3]): binds
B2	41.3	37.4	–
UAGAGUUACACCCUGGGAGUUAA (ssRNA) [pre-let-7c loop]	–	–	binding result (GST-DAZL [4]): binds
B3	22.1	18.1	–
B4	–	–	binding result [5]: no binding
UAGAGAUACACCCUGGGAGAUAA (ssRNA) [pre-let-7c loop, second U to A in both GUU]	–	–	binding result (GST-DAZL [3]): binds
